Reference: patent US9096654B2, “Peptides capable of modulating the function of TIRC7” (CELLACT PHARMA GMBH, priority 2005, dated 2015)

Tests used:
PBMC = experiment: Mixed lymphocyte reaction (MLR): inhibition of proliferation of stimulated PBMC by TIRC7 derived peptides; type: cell-based; conditions: mitomycin-inactivated PBMC (stimulator), CFSE-stained PBMC (responder), 6 days incubation with peptide in PBS, pH 7.3
Protocol: As described in Example 1 herein, peptides were tested for their ability to inhibit proliferation of mitomycin-stimulated PBMCs.
Freshly isolated PBMC were inactivated with mitomycin (stimulator), or stained with CFSE (responder). Cells were incubated for 6 days with the peptides as described in FIG. 1, dissolved in PBS and titrated to pH 7.3. Subsequently, an in vitro assay, mixed lymphocyte reaction (MLR), was performed essentially as described in international applications WO99/11782 and WO03/025000 to analyze the potency of the tested TIRC7 derived peptides to inhibit the immune response. For all peptides shown in FIG. 1 substantial inhibition of proliferation could be observed.

activated T-cells = conditions: dose dependent, cited from earlier work

Molecule	inhibition of proliferation (PBMC)	suppression of proliferation of activated T-cells in MLR (activated T-cells; MLR)	suppression of proliferation of T-cells (activated T-cells; in response to alloactivation in a mixed lymphocyte culture or in response to mitogens)
D46M: synthetic peptide derived from the third extracellular domain of TIRC7 protein (SEQ ID NO: 3, FIG. 1) (DRQEENKAGLLDLPDASVNGWSSDEEKAGGLDDEEEAELVPSEVLM; TIRC7 peptide)	Particular advantageous	–	–
TIRC7: in vitro translated T-cell immune response cDNA 7 protein, involved in signal transduction of T-cell activation and/or proliferation (protein, UniProt Q13488 1-830, looked up, TIRC7 in vitro translated) V-type proton ATPase 116 kDa …: MGSMFRSEEVALVQLFLPTAAAYTCVSRLGELGLVEFRDLNASVSAFQRRFVVDVRRCEELEKTFTFLQEEVRRAGLVLPPPKGRLPAPPPRDLLRIQEETERLAQELRDVRGNQQALRAQLHQLQLHAAVLRQGHEPQLAAAHTDGASERTPLLQAPGGPHQDLRVNFVAGAVEPHKAPALERLLWRACRGFLIASFRELEQPLEHPVTGEPATWMTFLISYWGEQIGQKIRKITDCFHCHVFPFLQQEEARLGALQQLQQQSQELQEVLGETERFLSQVLGRVLQLLPPGQVQVHKMKAVYLALNQCSVSTTHKCLIAEAWCSVRDLPALQEALRDSSMEEGVSAVAHRIPCRDMPPTLIRTNRFTASFQGIVDAYGVGRYQEVNPAPYTIITFPFLFAVMFGDVGHGLLMFLFALAMVLAENRPAVKAAQNEIWQTFFRGRYLLLLMGLFSIYTGFIYNECFSRATSIFPSGWSVAAMANQSGWSDAFLAQHTMLTLDPNVTGVFLGPYPFGIDPIWSLAANHLSFLNSFKMKMSVILGVVHMAFGVVLGVFNHVHFGQRHRLLLETLPELTFLLGLFGYLVFLVIYKWLCVWAARAASAPSILIHFINMFLFSHSPSNRLLYPRQEVVQATLVVLALAMVPILLLGTPLHLLHRHRRRLRRRPADRQEENKAGLLDLPDASVNGWSSDEEKAGGLDDEEEAELVPSEVLMHQAIHTIEFCLGCVSNTASYLRLWALSLAHAQLSEVLWAMVMRIGLGLGREVGVAAVVLVPIFAAFAVMTVAILLVMEGLSAFLHALRLHWVEFQNKFYSGTGYKLSPFTFAATDD	–	significantly suppressed	efficiently suppress
A61V: synthetic peptide derived from the third extracellular domain of TIRC7 protein (SEQ ID NO: 4, FIG. 1) (TIRC7 peptide) ADRQEENKAGLLDLPDASVNGWSSDEEKAGGLDDEEEAELVPSEVLMHQAIHTIEFCLGCV	Particular advantageous	–	–
